Sequences and labels used below:
B1: TlpA-CC WT (TlpA coiled-coil domain, wild type) (protein)
chain: MRPATYEPEQIIEAGLALQAEGRNITGFALRNQVGGGNPTRLRQIWDEYQASQSTVVTEPVAELPVEVAEEVKAVSAALSERITQLATELNDKAVRAAERRVAEVTRAAGEQTAQAERELADAAQTVDDLEEKLDELQDRYDSLTLALESERSLRQQHDVEMAQLKERLAAAEENTRQREERYQEQKTVLQDALNAEQAQHKNTREDLQKRLEQISAEANARTEELKSERDKVNTLLTRLESQENALASERQQHLATRETLQQRLEQAIADTQARAGEIALERDRVSSLTARLESQEKASSEQLVRMGSEIASLTERCTQLENQRDDARLETMGEKETVAALRGEAEALKRQNQSLMAALSGNKQTGGQNA
B2: DED-TlpA-CC (TlpA coiled-coil domain with Asp-Glu-Asp appended to the N-terminus) (protein)
chain: DEDMRPATYEPEQIIEAGLALQAEGRNITGFALRNQVGGGNPTRLRQIWDEYQASQSTVVTEPVAELPVEVAEEVKAVSAALSERITQLATELNDKAVRAAERRVAEVTRAAGEQTAQAERELADAAQTVDDLEEKLDELQDRYDSLTLALESERSLRQQHDVEMAQLKERLAAAEENTRQREERYQEQKTVLQDALNAEQAQHKNTREDLQKRLEQISAEANARTEELKSERDKVNTLLTRLESQENALASERQQHLATRETLQQRLEQAIADTQARAGEIALERDRVSSLTARLESQEKASSEQLVRMGSEIASLTERCTQLENQRDDARLETMGEKETVAALRGEAEALKRQNQSLMAALSGNKQTGGQNA
B3: TlpA-CC-DED (TlpA coiled-coil domain with Asp-Glu-Asp appended to the C-terminus) (protein)
chain: MRPATYEPEQIIEAGLALQAEGRNITGFALRNQVGGGNPTRLRQIWDEYQASQSTVVTEPVAELPVEVAEEVKAVSAALSERITQLATELNDKAVRAAERRVAEVTRAAGEQTAQAERELADAAQTVDDLEEKLDELQDRYDSLTLALESERSLRQQHDVEMAQLKERLAAAEENTRQREERYQEQKTVLQDALNAEQAQHKNTREDLQKRLEQISAEANARTEELKSERDKVNTLLTRLESQENALASERQQHLATRETLQQRLEQAIADTQARAGEIALERDRVSSLTARLESQEKASSEQLVRMGSEIASLTERCTQLENQRDDARLETMGEKETVAALRGEAEALKRQNQSLMAALSGNKQTGGQNADED

B1 gave a Hill coefficient (fit of CD melting curve at 222 nm, 25-50 C) of 19.1.

In the case of B2, the Hill coefficient (fit of CD melting curve at 222 nm, 25-50 C) came out at 24.7.

In turn, B3 registered a Hill coefficient (fit of CD melting curve at 222 nm, 25-50 C) of 16.7.

The values are drawn from US20170298425.
